B1: ESO157 BsAb #66 (anti-ESO157/HLA-A*02:01 scFv x anti-human CD3epsilon scFv, single chain) (bispecific antibody)
chain: QSVLTQPPSVSGAPGQRVTISCTGSSSNIGAGYDVHWYQQLPGTAPKLLIYGNSNRPSGVPDRFSGSKSGTSASLAITGLQAEDEADYYCQSYDSSLSGSWVFGGGTKLTVLGSRGGGGSGGGGSGGGGSLEMAEVQLVESGAEVKRPGASVKVSCKASGYTFTSYGISWVRQAPGQGLEWMGRFIPNLNKGNSAHKFEGRVSFTADKFTNTAYMELRGLKSDDTAVYYCARGDYGSDQWGQGTLVTVSS
B2: ESO157 BsAb #76 (anti-ESO157/HLA-A*02:01 scFv x anti-human CD3epsilon scFv, single chain) (bispecific antibody)
chain: QSVVTQPPSLSGAPGQRVTISCNGSGSNIGAGYDVHWYQQLPGTAPKLLIYGNSNRPSGVPDRFSGSKSGTSASLAITGLQAEDEADYYCQSYDSSLSGWGIFGGGTKLTVLGSRGGGGSGGGGSGGGGSLEMAEVQLVQSGAEVKKPGSSVKVSCKASGGTFSSYAISWVRQAPGQGLEWMGGIIPIFGTANYAQKFQGRVTITADESTSTAYMELSSLRSEDTAVYYCARYDSYVYDEWGQGTLVTVSS
B3: ESO157 BsAb #148 (anti-ESO157/HLA-A*02:01 scFv x anti-human CD3epsilon scFv, single chain) (bispecific antibody, V domains shown, not shown: small tags and cut ends)
VH: EVQLVQSGAEVKKPGASVKVSCKASGGTFSSYAISWVRQAPGQGLEWMGGIIPIFGTANYAQKFQGRVTITADKSTSTAYMELSSLRSEDTAVYYCARSYWSWTPYDPWGQGTLVTVSS
VL: LPVLTQPPSVSVAPGKTARITCGGNNIGSKSVHWYQQKPGQAPVLVIYYDSDRPSGIPERFSGSNSGNTATLTISRVEAGDEADYYCQVWDSSSDHYVFGTGTKVTVL
B4: ESO157 BsAb #52 (anti-ESO157/HLA-A*02:01 scFv x anti-human CD3epsilon scFv, single chain) (bispecific antibody)
chain: QSVLTQPPSVSGAPGQRVTISCTGSSSNIGAGYDVHWYQQLPGTAPKLLIYGDTNRPSGVPDRISGSKSGTSASLAITGLQAEDEADYYCQSYDSNLYTYVFGTGTKVTVLGSRGGGGSGGGGSGGGGSLEMAQVQLVQSGAEVKKPGASVKVSCKASGYTFTSYGISWVRQAPGQGLEWMGWISAYNGNTNYAQKLQGRVTMTTDTSTSTAYMELRSLRSDDTAVYYCARYSGYYAGDSWGQGTLVTVSS
B5: ESO157 BsAb #35 (anti-ESO157/HLA-A*02:01 scFv x anti-human CD3epsilon scFv, single chain) (bispecific antibody, not shown: small tags and cut ends)
scFv: QSVVTQPPSVSAAPGQKVTISCSGSSSNIGNNYVSWYQQLPGTAPKLLIYDNNKRPSGIPDRFSGSKSGTSATLGITGLQTGDEADYYCGTWDSSLSAWVFGGGTKLTVLGSRGGGGSGGGGSGGGGSLEMAQVQLVQSGAEVKKPGSSVKVSCKASGDTFSSYSISWVRQAPGQGLEWMGRIIPILGIANYAQKYQGRVTLSADKSTSTSYMELNSLRSEDTAVYYCARDWSYSIDYWGQGTLVTVSS
notes: also called NY-ESO-1 BsAb #35
B6: phage clone #66, anti-ESO157/HLA-A*02:01 scFv displayed on phage (scFv, V domains shown)
VH: EVQLVESGAEVKRPGASVKVSCKASGYTFTSYGISWVRQAPGQGLEWMGRFIPNLNKGNSAHKFEGRVSFTADKFTNTAYMELRGLKSDDTAVYYCARGDYGSDQWGQGTLVTVSS
VL: QSVLTQPPSVSGAPGQRVTISCTGSSSNIGAGYDVHWYQQLPGTAPKLLIYGNSNRPSGVPDRFSGSKSGTSASLAITGLQAEDEADYYCQSYDSSLSGSWVFGGGTKLTVLG
B7: phage clone #52, anti-ESO157/HLA-A*02:01 scFv displayed on phage (scFv, V domains shown)
VH: QVQLVQSGAEVKKPGASVKVSCKASGYTFTSYGISWVRQAPGQGLEWMGWISAYNGNTNYAQKLQGRVTMTTDTSTSTAYMELRSLRSDDTAVYYCARYSGYYAGDSWGQGTLVTVSS
VL: QSVLTQPPSVSGAPGQRVTISCTGSSSNIGAGYDVHWYQQLPGTAPKLLIYGDTNRPSGVPDRISGSKSGTSASLAITGLQAEDEADYYCQSYDSNLYTYVFGTGTKVTVLG
B8: phage clone #148, anti-ESO157/HLA-A*02:01 scFv displayed on phage (scFv, V domains shown)
VH: B3 VH
VL: LPVLTQPPSVSVAPGKTARITCGGNNIGSKSVHWYQQKPGQAPVLVIYYDSDRPSGIPERFSGSNSGNTATLTISRVEAGDEADYYCQVWDSSSDHYVFGTGTKVTVLG
B9: phage clone #116, anti-ESO157/HLA-A*02:01 scFv displayed on phage (scFv, V domains shown)
VH: QVQLVQSGPEVKKPGASMKVSCKASGYTFTKYGISWVRQAPGQGLEWMGWISADSGKTSYAQNLQGRVSLTIDTSTATAYMELRSLRSDDTAVYYCARDDDSWGQGTLVTVSS
VL: QSVLTQPPSVSAAPGQKVTISCSGSSSNIGNNYVSWYQQLPGTAPKLLIYDNNKRPSGIPDRFSGSKSGTSATLGITGLQTGDEADYYCGTWDSSLSAEVFGTGTKVTVLG

The first test concerns the target biotinylated recombinant ESO157/HLA-A*02:03 complex (human). The test can be described thus: BLI (Octet QK), biotinylated pMHC on streptavidin sensor, BsAb 10 ug/mL. For orientation: BLI is a label-free optical method that tracks binding on a fibre tip over time.
As a reminder, the Kd is the constant that tells how readily two partners part at equilibrium. As to B1, the Kd turned out to be 47 nM.

For B2, the Kd was determined as 47 nM.

As for B3, the equilibrium dissociation constant (Kd) is 85 nM.

Take B4: the dissociation constant (Kd) came to 82 nM.

For B5, the Kd was 50 nM.

The target in the next test is biotinylated recombinant ESO157/HLA-A*02:02 complex (human). The description is as above.
B3: the Kd is 19 nM.

Turning to B5, the Kd was 22 nM.

For the next test the target is unchanged. The description is as above. The source holds these as a separate data set.
On to B1, for which the Kd was determined as 25 nM.

With B2, the Kd was determined as 34 nM.

Turning to B4, the Kd is 63 nM.

The target of the next test is biotinylated recombinant ESO157/HLA-A*02:06 complex (human). The description is as above.
As for B1, the Kd turned out to be 58 nM.

Consider B2, for which the equilibrium dissociation constant (Kd) came out at 126 nM.

In the case of B3, the dissociation constant Kd worked out at 224 nM.

Take B4: the Kd was 140 nM.

Regarding B5, the dissociation constant (Kd) was 78 nM.

A further test deals with biotinylated recombinant ESO157/HLA-A*02:05 complex (human). The description is as above.
B3: the Kd was 18 nM.

In a further test the target is biotinylated recombinant ESO157/HLA-A*02:11 complex (human). The test is described as above.
For B1, the dissociation constant Kd is 48 nM.

On to B2, for which the Kd turned out to be 97 nM.

In another test the target is biotinylated recombinant ESO157/HLA-A*02:05 complex (human). Described as above. The source holds these as a separate data set.
Take B1: the Kd came out at 33 nM.

On to B2, for which the Kd is 40 nM.

As for B4, the Kd came to 26 nM.

Another test deals with ESO157 A6 peptide (…)/HLA-A*02:01 complex on T2 cells (human). The experiment in a line: FACS, peptide-pulsed T2 cells.
B6 gave an MFI of 19800.

Take B7: the MFI came out at 1880.

In the case of B8, the MFI worked out at 17500.

Consider B9, for which the MFI turned out to be 2640.

Another test concerns the target ESO157 A5 peptide (…)/HLA-A*02:01 complex on T2 cells (human). The experiment in a line: FACS, peptide-pulsed T2 cells.
In the case of B6, the MFI was 748.

B7 returned an MFI of 107.

With B8, the MFI was 14200.

Turning to B9, the MFI came to 1340.

In a further test the target is ESO157 A3 peptide (…)/HLA-A*02:01 complex on T2 cells (human). The experiment in a line: FACS, peptide-pulsed T2 cells. On the technique in general: A flow cytometer gives signals particle by particle.
With B6, the MFI came to 38400.

With B7, the MFI was determined as 17700.

The molecule B8 showed an MFI of 52900.

In turn, B9 yielded an MFI of 16500.

The next test deals with T1, ESO157 wild type peptide (…)/HLA-A*02:01 complex on cells (human).
T1 construct: also called ESO157-loaded T2 cells
The experiment in a line: FACS, peptide-pulsed T2 cells.
B6 returned an MFI of 67000.

B7: the MFI stood at 14500.

Consider B9, for which the MFI amounted to 11300.

The target in the next test is ESO157 A1 peptide (…)/HLA-A*02:01 complex on T2 cells (human). The test can be described thus: FACS, peptide-pulsed T2 cells.
For the molecule B6, the MFI was 82400.

Take B7: the MFI was 14900.

Consider B8, for which the MFI stood at 27700.

As for B9, the MFI was 19600.

The target in another test is ESO157 A7 peptide (…)/HLA-A*02:01 complex on T2 cells (human). The experiment in a line: FACS, peptide-pulsed T2 cells.
B6 showed an MFI of 64400.

In turn, B7 came in with an MFI of 9890.

Consider B8, for which the MFI stood at 62400.

B9 had an MFI of 14400.

The target in the next test is ESO157 A4 peptide (…)/HLA-A*02:01 complex on T2 cells (human). The experiment in a line: FACS, peptide-pulsed T2 cells.
The molecule B6 showed an MFI of 48100.

In turn, B7 showed an MFI of 4740.

Turning to B8, the MFI stood at 240.

Molecule B9 registered an MFI of 1150.

A further test addresses T2, HLA-A*02:01 on T2 cells without peptide loading (human).
T2 construct: TAP-deficient T2 cells, no peptide added; also called No peptide; T2 cells with no peptide loaded
The experiment in a line: FACS, peptide-pulsed T2 cells.
B6 gave an MFI of 157.

Molecule B7 yielded an MFI of 113.

Take B8: the MFI is 208.

The molecule B9 gave an MFI of 502.

A further test deals with ESO157 A8 peptide (…)/HLA-A*02:01 complex on T2 cells (human). The experiment in a line: FACS, peptide-pulsed T2 cells.
B6: the MFI came to 90500.

B7 displayed an MFI of 19200.

With B8, the MFI was determined as 58300.

In the case of B9, the MFI stood at 3400.

For the next test, the target named is T3, biotinylated recombinant ESO157 wild type peptide/HLA-A*02:01 complex monomer (human).
T3 construct: also called recombinant ESO157/HLA-A*02:01 complex; biotin-labelled ESO157 wild type peptide/HLA-A*02:01 complex
The experiment in a line: SPR (Biacore X100), biotinylated pMHC on streptavidin chip, BsAb as analyte. Background: Surface plasmon resonance follows binding to a sensor surface in real time, without labels.
In general, koff refers to the rate constant with which the complex falls apart. Usually kon stands for the rate constant with which the complex forms. With B3, the Kd is 6 nM, the off-rate (koff) amounted to 0.000902 s⁻¹ and the on-rate (kon) turned out to be 151000 M⁻¹ s⁻¹.

For the molecule B5, the equilibrium dissociation constant (Kd) came out at 14.1 nM, the koff stood at 0.00128 s⁻¹ and the on-rate constant (kon) is 90900 M⁻¹ s⁻¹.

For a further test, the target named is T4, Bio-C9V mutant.
T4 construct: also called biotinylated ESO157 C9V/HLA-A*02:01 complex monomer
The test can be described thus: phage ELISA: streptavidin plate coated with biotinylated peptide/HLA-A*02:01 monomer, phage detected with HRP-conjugated anti-M13 antibody, absorbance at 450 nm.
As for B6, the binding result was “binds”.

With B7, the binding result is listed as “binds”.

As to B8, the binding result is listed as “binds”.

B9: the binding result is recorded as “binds”.

(Values after patent US20190382504A1 (EUREKA THERAPEUTICS, published 2019).)
